Data as given in a protein production outcome set (Wang et al. 2014).

Assay: label from the status in PepcDB records

MRMIDIIEKKRDGHTLTTEEINFFIGGYVKGDIPDYQASSLAMAIYFQDMNDDERAALTMAMVNSGDMIDLSDIKGVKVDKHSTGGVGDTTTLVLAPLVAAVDVPVAKMSGRGLGHTGGTIDKLEAIDGFHVEIDEATFVKLVNENKVAVVGQSGNLTPADKKLYALRDVTGTVNSIPLIASSIMSKKIAAGADAIVLDVKTGSGAFMKTLEDAEALAHAMVRIGNNVGRNTMAIISDMNQPLGRAIGNALELQEAIDTLKGQGPKDLTELVLTLGSQMVVLANKAETLEEARALLIEAINSGAALEKFKTFIKNQGGDETVIDHPERLPQAQYQIEYKAKKSGYVTELVSNDIGVASMMLGAGRLTKEDDIDLAVGIVLNKKIGDKVEEGESLLTIHSNRQDVDDVVKKLDSSITIADHVVSPTLIHKIITE
protein production: not failed

MRICLFLCLCLCMASPALAQVAVFPALSGKTDAQTLVVYSSLDEPLATPMIEGFQKANPDIAVHYEDMLTGEIYDRIVKETDAGKKTADFAFSSAMDLQVKLSNDGYAQRSDLAMSARWPAWANWRNTAYALTFEPAVFVYHKPSFTTEKPPATRAEFVDYLERHAKEVHGRIATYDIERSGVGFLFMSRDQEQFGDIWSVIKAMGAAGVKVYSTSSAILERVSDGRFVLGYNILGSYAADWASRHPDVGIVLPKDYTVVMSRIGLVPEAAANPELGRRYLEFFMSKEGQTIMARQLQIPAVSPEVAGENTANTMQAIHGAQLRPVPVSPGLMVYLDQVKRSRLIERWNEALRSQ
protein production: failed

MVKVPVLRIGKVAAPTGADHALAGSAFPAKNAIADVNPPASPWIDKSVAAQRTEKAGLAAPRSEVTLDFVPPVTRRTPRITFPRRGRSDWTHSLTNSLRMSDTALVAAAVFAGFALNTNGLSLAAESPAFTHHLMTGLILGLVWLGALEVYRTRDPKVLGVGPEEYKRVLSASFRVFGFLGIVAVVFRLDAVSSFVLVSLPLGLVALTGSRWSFRRWLSHEKSRGRCLSRAIVVGEPQDVRYVIKQINRKSGAAYDILGACLPGARRGAVLKVDHLRVPVLSSIYGIAHTVRQTGANAVIVAGPVPGGNQFIQELGWQLEENAAELVLAATLTNVAGPRIHWRPVEGLPLMHVDIPHYSGGKHTLKRLMDITVSASALLILSPILLLLAAIVHHDSPGPVLFRQERVGRRGTTFHMLKFRSMVVDAESRLEELNTRDEGAGVLFKIRGDPRITRCGRWMRKYSLDELPQFWNVLVGNMSLVGPRPPLAREVSGYERHTHRRLLIKPGITGLWQINGRSDLPWDEAVRLDLYYVENWSIAGDLIIMWRTFRAMIQPSGAY
protein production: failed

PLKRSLPPDTAITKTDRVTVKGEEVPYEVTTGTQPVYGDDDTAVASLHYTYYRRSDVDDRSGRPLMISFNGGPGSGSLWMHLGYTSPKHLLISDEGYPVQPYGVEDNNQSIIDVADIVYVNPVNTGFSRVIDDDTDAEQFFGVNADVDYLADWIDTFISRHGRWRSPKYLIGESYGTTRVAGLAGELQNSHWTYLNGVILVSPTGLGMEPAGPSPRSEALKLPYYAATAWYHEQLPDALQSRDLQALLSEVEDYTIEEYIPAVTRGGFVEDARRQAVAQQVARYSGLSEPFVLDHNLAVPADAFWKELLQDEGRTVGRLDSRYEGIDVTNAGSEYDYPAELTAWNHAFTPAINHYLRDDLGFTTDLQYNTFGNVYPWDETENNTGAQLREAMAQNPYLHVMVQSGYYDGATDYFSAKYVMWNLGTRETMRDRLRFEGYRSGHMMYLRSEDLATSNEDIRTFIEESIPDEGTPARYGRNR
protein production: failed

MPMGSLQPLATLYLLGMLVASCLGRLSWYDPDFQARLTRSNSKCQGQLEVYLKDGWHMVCSQSWGRSSKQWEDPSQASKVCQRLNCGVPLSLGPFLVTYTPQSSIICYGQLGSFSNCSHSRNDMCHSLGLTCLEPQKTTPPTTRPPPTTTPEPTAPPRLQLVAQSGGQHCAGVVEFYSGSLGGTISYEAQDKTQDLENFLCNNLQCGSFLKHLPETEAGRAQDPGEPREHQPLPIQWKIQNSSCTSLEHCFRKIKPQKSGRVLALLCSGFQPKVQSRLVGGSSICEGTVEVRQGAQWAALCDSSSARSSLRWEEVCREQQCGSVNSYRVLDAGDPTSRGLFCPHQKLSQCHELWERNSYCKKVFVTCQDPNPAGLAAGTVASIILALVLLVVLLVVCGPLAYKKLVKKFRQKKQRQWIGPTGMNQNMSFHRNHTATVRSHAENPTASHVDNEYSQPPRNSRLSAYPALEGVLHRSSMQPDNSSDSDYDLHGAQRL
protein production: failed

MSKVLVLKSSILAGYSQSNQLSDYFVEQWREKHSADEITVRDLAANPIPVLDGELVGALRPSDAPLTTRQQEALALSDELIAELKAHDVIVIAAPMYNFNISTQLKNYFDLVARAGVTFRYTENGPEGLVTGKKAIVITSRGGIHKDGPTDLVTPYLSTFLGFIGITDVKFVFAEGIAYGPEMAAKAQSDAKAAIDSIVAA
protein production: failed

MDGIFAGIICNQANRCLTWTSQQLFSEKISGAEGTKLDDEFLDMERKIDVTNKVVAEILSKTTEYLQPNPAYRAKLGMLNTVSKIRGQVKTTGYPQTEGLLGDCMLKYGKELGEDSTFGNALIEVGESMKLMAEVKDSLDINVKQTFIDPLQLLQDKDLKEIGHHLKKLEGRRLDYDYKKKRVGKIPDEEVRQAVEKFEESKELAERSMFNFLENDVEQVSQLAVFIEAALDYHRQSTEILQELQSKLQMRISAASSVPRREYKPRPVKRSSSELNGVSTTSVVKTTGSNIPMDQPCCRGLYDFEPENQGELGFKEGDIITLTNQIDENWYEGMIHGESGFFPINYVEVIVPLPQ
protein production: not failed

MWQQHLAILPILVPLLAALLQLLPWGDRPQPKRRAIGLLSSILTLILTIALLVQVNQDQMIVYALGNWSAPFGIVLMVDKLSALMMLVTAILALPVLIYGCYAEDNLGSHFQALFQFQIMGIMGAFATGDIFNLFVFFEVLLISSYALLMHGGGKFRLRTTLHYVLLNLLGSALFLISVGTLYGVTGTLNMADLATQVQQLSGDQAALAKAGGMMLLIVFGIKAAILPLHFWLPQAYSTTTGVVAALFAIMTKVGVYAIVRVYTLIFGPEANELALIAHDWLWVMGLVTMLAGAIGIIGARDLRLLVAYLVVISIGTLIATYSLNGIATTGAMLFYLIHSTFITGALFLLADLIAFERGKTASRIVSGKKMANHSAYSVMFLIAAIAIIGLPPLSGFVGKLMIMESASPTGASFWLWGAMLGATLIMLISVTRAGSKMLWHTLSGKANEQSAPLGKRAAVVMLLSLSVVMTLFASPIRNYTDDVAEQLYDIDQYPSRVLTKGAE
protein production: failed

MAVESAAVGVFDSGVGGLSVLREIRARLPSESLLYVADNAHVPYGEKSAEYIRERCERIGDFLLEQGAKALVLACNTATAAAAAELRERYPQVPLVAMEPAVKPAAAATRNGRVGVLATTGTLKSARFAALLDRFASDVQVFTQPCPGLVERIEAGDLYGPQTRALLERLLAPILEQGCDTLILGCTHYPFVKPLLAELIPAEMAVIDTGAAVARQLERVLSARALLASGQAATPRFWTSALPEEMERILPILWGSPESVGKLVV
protein production: failed

MPSPARTLLLAFVSAWFLLGGLGHFVFTDFFVGIVPPYVPWPLAAVWVSGVFELLGAAALLVPAWRRLAACGLFILTLCVTPANLYMWQHPDLFPSFPPTLLAARLALQAFLLGCILALMLARDEAPLARR
protein production: failed

MEPNRFGDILAFVSAVKAGSFTSAAATLGVTRSAVGKSVARLEARLGVRLLHRTTRKLNVTGEGLVVFERWSQILEDLEEVDATMAQRRGKPAGILRLTAPLSFGQRHILPILNAYVTNWPEIQADVWFTDHYVDLIEEGIDVAVRIGGVKDDARILSRTIGGQQFVTCAAPGYLAKKGVPSTPADLAGHDTIFFLSGQRPMPWRLGQGDAIEVCDGPGRMNIDSSEALREAALSGFGLIHLPTYITGKDLQRGDLVEVLEAYRPPADPIRLIYPSKRHLSPRTRAFIDLLIERWRDGVPWERLEPAS
protein production: failed

MKVIETNFTDAKLLEPRLFGDDRGFFTESYNKKVLETLGVTHSFVQDNVSYSAEAGTIRGLHFQKNPKAQTKLIQVMQGAIYDVIVDLRKDSPTFKQWRGYILSADNHRQLLVPKGFAHGFCTLVPHTIVMYKVDEYYSADHDSGVLWNDKELAIPWPVTSPILSDKDRILPLLQECEDSF
protein production: not failed

MKVVLVGATGFVGRHLLAALHAAGHQLIATSRRPQPQGLPGVEWRQLDLDCLGREPQPFALPADTDLLINAAGLLSTDARALSLTQDLGTRALFDLAAARGVRVLQISALGAGILPQVPFLASKAAADDYLLQLGVPAVVLRPSLVLGAGGASSGWLTRLSPWPLIPLLSAKAQMQPLHIEDLSAAVLALLRQWPQESMVLPLVGPERMTMAQLLDRLRSAQGWAPARYFKLPAVLLRLVAAAGDRLGWRALNRQSLAMARHDNLADPQVLASVCGYHAAPLAARLQDWPQAAQSTQLALRPLLLAVMVLIWLGTALVCIGPGYAWGLRIMAEAGVQGIWAALAVIGGSLCDALLGVGLLLRRWRRRALQAQLGLMLGYTLIISLILPHFWFDPYAAVAKNLVLMVATLWLLWTEPHQ
protein production: failed

MRSDGRKEDQLRPVSIQRDFLEYPEGSCLISFGKTKVICTASVIENVPNWLKGKGQGWITAEYSMLPRATQQRTIRESVQGRIGGRTHEIQRMIGRAMRTAVELTKIGERTIWVDCDVIQADGGTRTAAITGAFVAVADAIIKLHKEGIIEETPIKDFVAAVSVGIVNDRILLDLNFEEDSAAQVDMNVVGTGSGRLSEVHTMGEEYSFTKDELIKMLDLAQKGINELIELQKKLYVIQDGKWERSELKEVSSTT
protein production: not failed

MSLSRRLTMHWFAQAPANIALIKYMGKKDENSNLPDNSSLSYTLSNLLSSVKLEKLPTKKDIWEPLTIPGAPEFNLSVEAQKRFIDHLVRLKEYFGYVGGFLIQSSNNFPHSSGLASSASSFAALTKCASIALSELTQKPLPSIDEQAQLSRLGSGSSCRSFYAPWALWTGDKVSAIDLPYKDLLHQVIVISSQEKEIPSRVAHKLVKTSPFYETRSERAEANLKLLLNAFENKDWTSIYQICWHEFLDMHQLFKTCEKPFSYITDNTLHILSVIEKFWNEKGDGPVVTMDAGPNVHLLYRSDQTDLARQFKSDHLVGNYDVLEGHHHHHH
protein production: not failed

MTMKETFTLVATAAAGLEAVVGRELRELGYETQVENGKVRFQGDVRAIAETNLWLRAADRIKIVVGEFPARTFEELFQGVFALDWENYLPLGAKFPISKAKCVKSKLRNEPSVQAISKKAVVKKLQKYFHRPEGVPLQETGAEFKIEVSILKDKATVLIDTTGASLFKRGYRTDKGGAPIKENMAAAILELSNWYPDKPLIDPTCGSGTFCIEAAMIGMNIAPGFNRDFAFEAWNWVGKDLVQSVRDEADSKANYDVALDIMGCDIDSRMVEIAKANAREAGLEDVVKFKQMRLQDLKTDKINGVIISNPPYGERLLDDKAVDILYNEMGQTFAPLKTWSKFILTSDEQFESKYGMKADKKRKLYNGTLRVDLYQYFGERVRRSEARKVN
protein production: failed

MPGPIMQEVAQYLASLSGKAVVINIFAGHADRSLSQTQLAELLDKLLARHPGSAVILLDHRREIRIPLPPEVVINPFNTLHHAMALIAQAELIISPDTSVVHMAAAWNKPLIAVYKDVLLNNRLWAPGYDNARQIIVKCGKVHQHRGLVDRIIAALPETLLEHHHHHH
protein production: failed

MGSYQLLVPPPEALSKPLSVPTRLLLGPGPSNLAPRVLAAGSLRMIGHMQKEMLQIMEEIKQGIQYVFQTRNPLTLVVSGSGHCAMETALFNLLEPGDSFLTGTNGIWGMRAAEIADRIGARVHQMIKKPGEHYTLQEVEEGLAQHKPVLLFLVHGESSTGVVQPLDGFGELCHRYQCLLLVDSVASLGGVPIYMDQQGIDIMYSSSQKVLNAPPGISLISFNDKAKYKVYSRKTKPVSFYTDITYLAKLWGCEGETRVIHHTTPVTSLYCLRESLALIAEQGLENCWRRHREATAHLHKHLQEMGLKFFVKDPEIRLPTITTVTVPAGYNWRDIVSYVLDHFSIEISGGLGPTEERVLRIGLLGYNATTENVDRVAEALREALQHCPKNKL
protein production: not failed
